# Reference: the supplement of paper PMC10567573
# B1: CDKL4 (parent)
# chain: AVKKFVESEDDPVVKKIALREIRM
# Variants of: B1
# Test: protein stability index of a GFP-peptide fusion (GPS, HEK-293T) (PSI 1-6); higher = more stable
# Settings: c terminus: a fixed tail appended
# 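Also: lentivirally expressed fusions sorted by FACS into six bins by GFP to DsRed ratio, PSI derived from sequencing read proportions per bin multiplied by bin number.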
row,Variant,protein stability index
1,AVKKFVESEDDPVVKKIALRKIRM,2.48
2,AVKKFVESEDDPVVKKIALRWIRM,3.91
3,AVKKFVESEDDPVVKKIALRMIRM,1.46
4,AVKKFVESEDDPVVKKIALRHIRM,2.95
5,AVKKFVESEDDPVVKKIALRRIRM,3.02
6,AVKKFVESEDDPVVKKIALRQIRM,2.45
7,AVKKFVESEDDPVVKKIALRTIRM,2.4
8,AVKKFVESEDDPVVKKITLREIRM,3.45
9,AVKKFVESEDDPVVKKICLREIRM,2.25
10,AVKKFVESEDDPVVKKILLREIRM,2.29
11,AVKKFVESEDDPVVKKINLREIRM,3.35
12,AVKKFVESEDDPVVKKIMLREIRM,1.94
13,AVKKFVESEDDPVVKKIILREIRM,2.21
14,AVKKFVESEDDPVVKKIYLREIRM,2.69
15,AVKKFVESEDDPVVKKIWLREIRM,2.43
16,AVKKFVESEDDPVVKKIQLREIRM,3.79
17,AVKKFVESEDDPVVKKIKLREIRM,3.03
18,AVKKFVESEDDPVVKKISLREIRM,3.4
19,AVKKFVESEDDPVVKKIHLREIRM,2.79
20,AVKKFVESEDDPVVKKIVLREIRM,2.6
21,AVKKFVESEDDPVVKKIGLREIRM,3.65
22,AVKKFVESEDDPVVKKIRLREIRM,2.76
23,AVKKFVESEDDPVVKKIELREIRM,3.37
24,AVKKFVESEDDPVVKKIFLREIRM,1.76

row,Variant,protein stability index
1,AVKKFVESEDDPVVKKIPLREIRM,3.57
2,AVKKFVESEDDPVVKKIDLREIRM,3.84
3,AVKKFVESEDDPVVKKIALVEIRM,1.46
4,AVKKFVESEDDPVVKKIALCEIRM,2.92
5,AVKKFVESEDDPVVKKIALGEIRM,3.03
6,AVKKFVESEDDPVVKKIALPEIRM,2.87
7,AVKKFVESEDDPVVKKIALLEIRM,2.44
8,AVKKFVESEDDPVVKKIALKEIRM,3.67
9,AVKKFVESEDDPVVKKIALTEIRM,2.88
10,AVKKFVESEDDPVVKKIALIEIRM,1.39
11,AVKKFVESEDDPVVKKIALQEIRM,3.49
12,AVKKFVESEDDPVVKKIALDEIRM,3.56
13,AVKKFVESEDDPVVKKIALYEIRM,2.25
14,AVKKFVESEDDPVVKKIALSEIRM,3.19
15,AVKKFVESEDDPVVKKIALNEIRM,3.74
16,AVKKFVESEDDPVVKKIALWEIRM,2.43
17,AVKKFVESEDDPVVKKIALEEIRM,3.74
18,AVKKFVESEDDPVVKKIALMEIRM,2.13
19,AVKKFVESEDDPVVKKIALAEIRM,3.21
20,AVKKFVESEDDPVVKKIALHEIRM,2.63
21,AVKKFVESEDDPVVKKIALFEIRM,1.5
22,AVKKFVESEDDPVVKKIALREIRH,3.59
23,AVKKFVESEDDPVVKKIALREIRI,2.97
24,AVKKFVESEDDPVVKKIALREIRC,2.76

row,Variant,protein stability index
1,AVKKFVESEDDPVVKKIALREIRP,3.43
2,AVKKFVESEDDPVVKKIALREIRD,3.73
3,AVKKFVESEDDPVVKKIALREIRF,2.6
4,AVKKFVESEDDPVVKKIALREIRE,3.41
5,AVKKFVESEDDPVVKKIALREIRK,3.11
6,AVKKFVESEDDPVVKKIALREIRL,2.74
7,AVKKFVESEDDPVVKKIALREIRN,2.95
8,AVKKFVESEDDPVVKKIALREIRG,3.07
9,AVKKFVESEDDPVVKKNALREIRM,3.7
10,AVKKFVESEDDPVVKKTALREIRM,4.48
11,AVKKFVESEDDPVVKKSALREIRM,4.28
12,AVKKFVESEDDPVVKKCALREIRM,3.32
13,AVKKFVESEDDPVVKKRALREIRM,3.45
14,AVKKFVESEDDPVVKKWALREIRM,2.15
15,AVKKFVESEDDPVVKKPALREIRM,3.53
16,AVKKFVESEDDPVVKKGALREIRM,3.08
17,AVKKFVESEDDPVVKKHALREIRM,3.33
18,AVKKFVESEDDPVVKKKALREIRM,3.87
19,AVKKFVESEDDPVVKKFALREIRM,2.79
20,AVKKFVESEDDPVVKKLALREIRM,2.57
21,AVKKFVESEDDPVVKKQALREIRM,3.46
22,AVKKFVESEDDPVVKKAALREIRM,3.95
23,AVKKFVESEDDPVVKKEALREIRM,3.93
24,AVKKFVESEDDPVVKKYALREIRM,2.85

row,Variant,protein stability index
1,AVKKFVESEDDPVVKKVALREIRM,3.22
2,AVKKFVESEDDPVVKKMALREIRM,2.87
3,AVKKFVESEDDPVVKKDALREIRM,4.36
4,AVKKFVESEDDPVVKKIALREVRM,2.57
5,AVKKFVESEDDPVVKKIALREARM,3.82
6,AVKKFVESEDDPVVKKIALRENRM,4.22
7,AVKKFVESEDDPVVKKIALRETRM,4.01
8,AVKKFVESEDDPVVKKIALRERRM,4.03
9,AVKKFVESEDDPVVKKIALREGRM,3.66
10,AVKKFVESEDDPVVKKIALREHRM,4.06
11,AVKKFVESEDDPVVKKIALREYRM,3.35
12,AVKKFVESEDDPVVKKIALREWRM,2.92
13,AVKKFVESEDDPVVKKIALREFRM,2.18
14,AVKKFVESEDDPVVKKIALREPRM,4.54
15,AVKKFVESEDDPVVKKIALRELRM,3.11
16,AVKKFVESEDDPVVKKIALREQRM,3.62
17,AVKKFVESEDDPVVKKIALRESRM,3.97
18,AVKKFVESEDDPVVKKIALREMRM,3.29
19,AVKKFVESEDDPVVKKIALREDRM,4
20,AVKKFVESEDDPVVKKIALREERM,4.04
21,AVKKFVESEDDPVVKKIALREKRM,4.29
22,AVKKFVESEDDPVVKKIALRECRM,3.32
